Results published in US20130184211A1 (NEW YORK UNIVERSITY, published 2013).

Experiments:
[1] = molecular target: T1, 1:1 binary complex of the ectodomains of FGFR1c and Klotho (human; murine, UniProt O35082 35-982); assay: SPR competition; competitor FGF23^28-251 immobilized, fixed FGFR1c-Klotho complex
T1 construct: range 35-982; also called FGFR1c-Klotho complex; binary FGFR1c-Klotho complex; not shown: C-terminal FLAG tag
T1 sequence 1: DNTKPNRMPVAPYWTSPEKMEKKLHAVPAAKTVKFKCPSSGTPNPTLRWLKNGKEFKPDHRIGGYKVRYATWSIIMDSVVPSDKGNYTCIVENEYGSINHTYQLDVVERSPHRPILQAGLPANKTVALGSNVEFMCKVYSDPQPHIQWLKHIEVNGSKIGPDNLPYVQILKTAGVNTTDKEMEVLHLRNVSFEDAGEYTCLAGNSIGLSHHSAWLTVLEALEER
T1 sequence 2: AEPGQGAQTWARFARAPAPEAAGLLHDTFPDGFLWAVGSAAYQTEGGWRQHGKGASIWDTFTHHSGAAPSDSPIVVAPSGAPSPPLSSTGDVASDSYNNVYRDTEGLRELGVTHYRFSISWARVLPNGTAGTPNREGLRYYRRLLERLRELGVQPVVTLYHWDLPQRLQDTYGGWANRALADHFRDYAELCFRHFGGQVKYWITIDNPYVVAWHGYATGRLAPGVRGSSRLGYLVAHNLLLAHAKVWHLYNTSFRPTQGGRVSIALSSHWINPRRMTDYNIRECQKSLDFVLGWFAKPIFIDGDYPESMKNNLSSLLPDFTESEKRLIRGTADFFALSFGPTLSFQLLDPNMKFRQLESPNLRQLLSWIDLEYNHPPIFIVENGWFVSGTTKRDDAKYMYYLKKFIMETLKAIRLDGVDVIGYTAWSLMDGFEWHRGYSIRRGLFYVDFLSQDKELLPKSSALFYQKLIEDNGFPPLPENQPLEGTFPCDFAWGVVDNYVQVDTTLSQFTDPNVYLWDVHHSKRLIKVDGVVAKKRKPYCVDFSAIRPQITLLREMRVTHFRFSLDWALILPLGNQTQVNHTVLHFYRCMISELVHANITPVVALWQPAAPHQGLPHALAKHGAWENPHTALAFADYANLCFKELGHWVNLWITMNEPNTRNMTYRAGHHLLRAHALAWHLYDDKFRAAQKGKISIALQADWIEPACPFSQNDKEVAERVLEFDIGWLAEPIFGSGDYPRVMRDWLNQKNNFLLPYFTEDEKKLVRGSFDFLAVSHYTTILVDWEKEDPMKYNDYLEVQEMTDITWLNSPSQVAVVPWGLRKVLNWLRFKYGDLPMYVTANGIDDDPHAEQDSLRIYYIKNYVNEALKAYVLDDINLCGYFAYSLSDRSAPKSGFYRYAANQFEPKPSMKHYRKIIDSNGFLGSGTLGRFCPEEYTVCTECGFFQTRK
Protocol: Increasing concentrations of FGF23²⁸⁻²⁵¹ (0-50 nM) were mixed with a fixed concentration of 1:1 complex of the ectodomains of FGFR1c and Klotho (15 nM and 20 nM, respectively) in HBS-EP buffer, and the mixtures were passed over the FGF23 chip. In the other—reverse—assay, FGF23¹⁸⁰⁻²⁵¹ was immobilized on a chip (˜48.4 fmole/mm² of flow channel). Increasing concentrations of FGF23²⁸⁻²⁵¹ (0-50 nM) were mixed with a fixed concentration of 1:1 complex of the ectodomains of FGFR1c and Klotho (20 nM) in HBS-EP buffer, and the mixtures were passed over the chip. As a control, competition of FGF23 C-terminal tail peptide in solution with immobilized FGF23 C-terminal tail peptide for binding to the binary FGFR1c-Klotho complex was studied. Increasing concentrations of FGF23¹⁸⁰⁻²⁵¹ (0-400 nM) were mixed with a fixed concentration of 1:1 complex of the ectodomains of FGFR1c and Klotho (20 nM) in HBS-EP buffer, and the mixtures were passed over the FGF23¹⁸⁰⁻²⁵¹ chip.
To fully nail down that the C-terminal tail of FGF23 mediates FGF23 binding to the binary FGFR1c-Klotho complex, a fixed concentration of FGFR1c-Klotho was mixed with increasing concentrations of FGF23¹⁸⁰⁻²⁵¹, and the mixtures were passed over the FGF23 chip. Mixtures of FGF23²⁸⁻²⁵¹ with FGFR1c-Klotho were used as a control. […] Similar results were obtained using the “reverse” SPR assay format, where FGF23¹⁸⁰⁻²⁵¹ was immobilized on a chip and mixtures of a fixed concentration of FGFR1c-Klotho complex with increasing concentrations of FGF23²⁸⁻²⁵¹ were passed over the chip (FIG. 3E). Mixtures of FGF23¹⁸⁰⁻²⁵¹ with FGFR1c-Klotho were used as a control (FIG. 3F). To verify the specificity of the interaction between the FGF23 C-terminal tail and the FGFR1c-Klotho complex, the C-terminal tail peptide of FGF21 and FGFR1c-Klotho were mixed at molar ratios of 6:1 and 10:1, and the mixtures were injected over a FGF23 chip.

[2] = molecular target: T1, 1:1 binary complex of the ectodomains …; assay: SPR competition dose-response: FGF23^28-251 mixed with a fixed concentration of FGFR1c-Klotho, immobilized FGF23^28-251 as competitor; averaged data of two to three experiments
From the text: For each protein injection over a Klotho chip, the nonspecific responses from the β-glucuronidase control flow channel were subtracted from the responses recorded for the Klotho flow channel. Similarly, for each protein injection over a FGF chip, the nonspecific responses from the FHF1B control flow channel were subtracted from the responses recorded for the FGF flow channel. Each set of experiments was repeated at least three times, and for each experiment, at least two protein injections were repeated two to five times to monitor chip performance and to verify reproducibility of the binding responses.
To examine whether the C-terminal tail of FGF23 can compete with full-length FGF23 for binding to the binary FGFR1c-Klotho complex, two assay formats were employed. In one assay, FGF23²⁸⁻²⁵¹ was immobilized on a chip (˜16-53 fmole/mm² of flow channel). Increasing concentrations of FGF23¹⁸⁰⁻²⁵¹ (0-400 nM) were mixed with a fixed concentration of 1:1 complex of the ectodomains of FGFR1c and Klotho (10 nM, 15 nM and 20 nM, respectively) in HBS-EP buffer, and the mixtures were passed over the chip. As a control, competition of FGF23 in solution with immobilized FGF23 for binding to the binary FGFR1c-Klotho complex was studied. […]

[3] = molecular target: T2, ectodomain of murine Klotho (A35 to K982) with C-terminal FLAG tag (murine, UniProt O35082 35-982); assay: SPR; Klotho ectodomain immobilized, increasing FGFR1c ectodomain injected; fitted saturation binding curve
T2 construct: range 35-982; Purified from culture media of HEK293 cells; also called Klotho ectodomain; not shown: C-terminal FLAG tag
T2 sequence (looked up): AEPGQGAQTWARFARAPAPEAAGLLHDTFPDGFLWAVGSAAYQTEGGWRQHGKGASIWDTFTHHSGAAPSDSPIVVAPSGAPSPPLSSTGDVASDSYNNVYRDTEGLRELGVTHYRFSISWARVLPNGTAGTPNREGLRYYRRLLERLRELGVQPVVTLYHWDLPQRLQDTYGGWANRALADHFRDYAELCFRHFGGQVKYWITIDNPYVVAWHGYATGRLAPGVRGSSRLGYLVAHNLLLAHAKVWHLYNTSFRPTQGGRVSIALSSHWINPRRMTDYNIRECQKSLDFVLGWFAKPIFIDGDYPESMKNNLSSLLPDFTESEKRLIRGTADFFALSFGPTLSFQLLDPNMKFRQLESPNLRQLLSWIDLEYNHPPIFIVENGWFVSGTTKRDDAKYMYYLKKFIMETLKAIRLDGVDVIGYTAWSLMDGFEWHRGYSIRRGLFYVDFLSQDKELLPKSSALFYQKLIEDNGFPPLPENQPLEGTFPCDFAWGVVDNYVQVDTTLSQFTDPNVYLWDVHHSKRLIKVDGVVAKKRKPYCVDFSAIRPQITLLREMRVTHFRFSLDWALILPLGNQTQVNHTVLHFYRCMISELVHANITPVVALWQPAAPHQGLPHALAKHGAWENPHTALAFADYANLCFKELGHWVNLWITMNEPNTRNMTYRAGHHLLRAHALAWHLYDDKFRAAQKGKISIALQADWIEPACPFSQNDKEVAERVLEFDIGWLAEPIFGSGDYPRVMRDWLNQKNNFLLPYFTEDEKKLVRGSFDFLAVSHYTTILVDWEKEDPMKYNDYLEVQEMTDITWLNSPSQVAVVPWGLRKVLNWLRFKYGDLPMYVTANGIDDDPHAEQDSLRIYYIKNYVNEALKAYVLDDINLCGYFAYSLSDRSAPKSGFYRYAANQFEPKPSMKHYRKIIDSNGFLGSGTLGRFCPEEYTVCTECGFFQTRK
Protocol: Proteins were immobilized by amine coupling on flow channels of research grade CMS chips (Biacore AB). Proteins were injected over a CMS chip at a flow rate of 50 μl min⁻¹, and at the end of each protein injection (180 s), HBS-EP buffer (50 μl min⁻¹) was flowed over the chip to monitor dissociation for 180 s. The chip surface was then regenerated by injecting 50 μl of 2.0 M NaCl in 10 mM sodium acetate, pH 4.5. […] For each protein injection over a Klotho chip, the nonspecific responses from the β-glucuronidase control flow channel were subtracted from the responses recorded for the Klotho flow channel. Similarly, for each protein injection over a FGF chip, the nonspecific responses from the FHF1B control flow channel were subtracted from the responses recorded for the FGF flow channel. Each set of experiments was repeated at least three times, and for each experiment, at least two protein injections were repeated two to five times to monitor chip performance and to verify reproducibility of the binding responses.
The size-exclusion data showing that Klotho and FGFR1c ectodomains form a stable binary complex (FIG. 1B) indicate that Klotho must harbor a high affinity binding site for FGFR1c. To further confirm this, surface plasmon resonance (SPR) spectroscopy was used to determine the dissociation constant of the FGFR1c-Klotho interaction. […]

B1: human FGF23 (A28 to I251), FGF23^28-251, with R176Q and R179Q (ligand)
chain: ASPLLGSSWGGLIHLYTATARNSYHLQIHKNGHVDGAPHQTIYSALMIRSEDAGFVVITGVMSRRYLCMDFRGNIFGSHYFDPENCRFQHQTLENGYDVYHSPQYHFLVSLGRAKRAFLPGMNPPPYSQFLSRRNEIPLIHFNTPIPRQHTQSAEDDSERDPLNVLKPRARMTPAPASCSQELPSAEDNSPMASDPLGVVRGGRVNTHAGGTGPEGCRPFAKFI
notes: also called full-length FGF23
- molar amount relative to FGFR1c-Klotho complex at 50% inhibition [1]: < 1 fold molar amount
- IC50 (read off the curve) [2]: ~20 nM

B2: ligand-binding domain of human FGFR1c (D142 to R365) (receptor)
chain: DNTKPNRMPVAPYWTSPEKMEKKLHAVPAAKTVKFKCPSSGTPNPTLRWLKNGKEFKPDHRIGGYKVRYATWSIIMDSVVPSDKGNYTCIVENEYGSINHTYQLDVVERSPHRPILQAGLPANKTVALGSNVEFMCKVYSDPQPHIQWLKHIEVNGSKIGPDNLPYVQILKTAGVNTTDKEMEVLHLRNVSFEDAGEYTCLAGNSIGLSHHSAWLTVLEALEER
notes: Expressed in E. coli; also called FGFR1c ectodomain
- Kd [3]: 72 nM
